These are literature values, as cited in article PMC5433096.

In the data set the target is PhoB (Escherichia coli) (UniProt P0AFJ5).
UniProt P0AFJ5, sequence (P0AFJ5 whole entry): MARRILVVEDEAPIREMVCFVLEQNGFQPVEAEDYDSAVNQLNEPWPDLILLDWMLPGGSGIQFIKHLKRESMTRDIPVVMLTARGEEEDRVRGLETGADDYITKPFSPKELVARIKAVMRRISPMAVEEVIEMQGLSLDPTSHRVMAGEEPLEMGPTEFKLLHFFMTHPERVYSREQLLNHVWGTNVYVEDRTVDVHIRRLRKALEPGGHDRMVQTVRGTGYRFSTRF

Usually Kd stands for the concentration at which binding is half-saturated. For PhoR (from UniProt P08400), the Kd was 3000 nM.
